This experiment addresses T1, CD20 (Homo sapiens, UniProt P11836).
T1 chain: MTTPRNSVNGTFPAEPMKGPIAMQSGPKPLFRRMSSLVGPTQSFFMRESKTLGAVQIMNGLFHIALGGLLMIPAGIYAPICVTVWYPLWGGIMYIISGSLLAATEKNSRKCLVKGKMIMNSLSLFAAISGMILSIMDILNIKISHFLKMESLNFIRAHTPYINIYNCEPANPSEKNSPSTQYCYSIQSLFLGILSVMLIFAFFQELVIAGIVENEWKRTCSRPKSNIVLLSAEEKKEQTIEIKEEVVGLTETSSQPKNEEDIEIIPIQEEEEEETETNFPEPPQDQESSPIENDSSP
Kind of experiment: saturation binding.

B1: Rituximab (antibody, V domains shown)
VH: QVQLQQPGAELVKPGASVKMSCKASGYTFTSYNMHWVKQTPGRGLEWIGAIYPGNGDTSYNQKFKGKATLTADKSSSTAYMQLSSLTSEDSAVYYCARSTYYGGDWYFNVWGAGTTVTVSA
VL: QIVLSQSPAILSASPGEKVTMTCRASSSVSYIHWFQQKPGSSPKPWIYATSNLASGVPVRFSGSGSGTSYSLTISRVEAEDAATYYCQQWTSNPPTFGGGTKLEIK
modifications: 90Y-DOTA conjugated
A word on the Kd: it is the concentration at which binding is half-saturated. As for B1, the Kd was found to be 2.84 nM.

For the origin of these results see paper PMC5603870 (2017).
